The values that follow come from US20180356429A1.

Assay [1] deals with Recombinant human IL-13 (R&D Systems, MN, catalog no. 213-ILB/CF) (human) (UniProt P35225). The assay is described as follows: sandwich pair screen, negative (blank) signal, binder is detection Ab; capture Ab 4D7.
Assay [2] has the same target. The assay is described as follows: sandwich pair screen, negative (blank) signal, binder is detection Ab; capture Ab 11H4.
For assay [3] the target is unchanged. In words: sandwich pair screen, negative (blank) signal, binder is detection Ab; capture Ab 14C9.
Assay [4] shares this target. In words: sandwich pair screen, negative (blank) signal, binder is detection Ab; capture Ab 8C11.
The target is the same in assay [5]. The assay is described as follows: sandwich pair screen, negative (blank) signal, binder is detection Ab; capture Ab 32116.
The target is the same in assay [6]. The assay is described as follows: sandwich pair screen, negative (blank) signal, binder is detection Ab; capture Ab 228B/C.
Assay [7] shares this target. In words: sandwich pair screen, 100 pg/mL recombinant IL-13, binder is detection Ab; capture Ab 4D7.
The target is the same in assay [8]. The assay is described as follows: sandwich pair screen, 100 pg/mL recombinant IL-13, binder is detection Ab; capture Ab 11H4.
For assay [9] the target is unchanged. In words: sandwich pair screen, 100 pg/mL recombinant IL-13, binder is detection Ab; capture Ab 14C9.
For assay [10] the target is unchanged. The assay is described as follows: sandwich pair screen, 100 pg/mL recombinant IL-13, binder is detection Ab; capture Ab 8C11.
The target is the same in assay [11]. The assay is described as follows: sandwich pair screen, 100 pg/mL recombinant IL-13, binder is detection Ab; capture Ab 32116.
The target is the same in assay [12]. The assay is described as follows: sandwich pair screen, negative (blank) signal, binder is detection Ab; capture Ab MILR1444A.
Assay [13] shares this target. In words: sandwich pair screen, 100 pg/mL recombinant IL-13, binder is detection Ab; capture Ab 228B/C.
Assay [14] has the same target. The assay is described as follows: sandwich pair screen, 100 pg/mL recombinant IL-13, binder is detection Ab; capture Ab MILR1444A.

Sequence of Recombinant human IL-13 (R&D Systems, MN, catalog no. 213-ILB/CF) (human) (P35225 other isoform, or with tags, fused parts or gaps): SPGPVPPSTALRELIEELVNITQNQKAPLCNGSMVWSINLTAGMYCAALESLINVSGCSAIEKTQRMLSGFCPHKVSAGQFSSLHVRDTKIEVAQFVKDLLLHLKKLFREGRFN

“MAB213 (R&D Systems, MN, Cat. No. MAB213) (antibody)”: the Assay Signal Neg (blank) in [1] worked out at 21.7; in [2], 23.2; in assay [3], 30; in assay [4] it was 3.9; in assay [5], 17.2; in assay [6], 26.5. For the same substance, in [12], the Assay Signal Neg (blank) was determined as 0.3. Besides, the Assay Signal Pos was 23.6 in assay [7]; 2310 in [8]; 33.2 in [9]; 4.1 in assay [10]; 18.2 in assay [11]; 52.7 in assay [13]. Moreover, in assay [14], the Assay Signal Pos is 47.2.
